Substrate: O=c1ccn([C@H]2C[C@H](O)[C@@H](COP(=O)(O)O)O2)c(=O)[nH]1
Assay: Kinetic analysis of TS activity (substrates)
Format: biochemical, Trypanosoma brucei
Details: other: clarified E. coli lysate, spectrophotometric assay
Procedure: The initial characterisation of TS was also carried out using a spectrophotometric assay. Owing to the pronounced instability of the recombinant protein, clarified ThyA^- E. coli lysates were used for characterisation, where the concentration of TS was calculated based on DHFR activity. […] . Enzymatic reactions were initiated by the addition of CH2THF (200 μM, Shircks Laboratories) and initial rates of CH2THF oxidation to DHF monitored by the increase in absorbance at 340 nm (ε = 6,200 M^-1 cm^-1). This method is not suitable for determination of the Km^app for CH2THF and a radiometric method was used instead. This method measures the release of tritiated water from 5-[^3H]-dUMP (American Radiochemicals, 14.3 Ci mmol^-1). Assays (40 μl final volume) contained 200 nM TS and varying amounts of CH2THF (37.5 μM– 4.8 mM) in DHFR-assay buffer. Reactions were initiated by adding 200 μM [^3H]-dUMP (5.55 × 10^5 dpm nmol^-1) and stopped after 10 min by the addition of 20 μl trichloroacetic acid. Residual 5-[^3H]-dUMP was removed by the addition of 200 μl of 10% (w/v) activated charcoal (Sigma). Aliquots (100 μl) of the supernatants were added to 2 ml of scintillation fluid (Pico-Fluor 40™, Packard Bioscience) and radioactivity determined using a Beckmann LS 6500 Scintillation Counter. […] Protein concentrations were determined using the BioRad protein assay based on the method of Bradford. […]

B1: T. brucei TS (Tsf-TbDHFR-TS) (Trypanosoma brucei brucei) (protein)
chain: MLSLTRILRKKIPVHELAGKISRPPLRPFSVVVASDEKGGIGDGGTIPWEIPEDMQYFRRVTTNLRGKNVKPSPSKRNAVVMGRKTWDSLPPKFRPLSNRLNVVLSRSATKEQLLAGIPDPIKRAEAANDVVAVNGGLEDALRMLVSKEHTSSIETVFCIGGGTIYKQALCAPCVNVLQAIHRTVVRPASNSCSVFFDIPAAGTKTPEGLELVRESITDERVSTGAGGKKYQFEKLVPRNSEEEQYLNLVGRIIDEGCTKCDRTGVGTRSLFGAQMRFSLRNNRLPLLTTKRVFWRGVCEELLWFLRGETNAKLLSDKGIHIWDGNGSRAFLDSRGLTDYDEMDLGPVYGFQWRHFGADYISCKVDSEGKGVDQIANIVKSLIENPDDRRMICTAWNPAALPRMALPPCHMMAQFYVSNGELSCMLYQRSCDMGLGVPFNIASYALLTFLMAKASGLRPGELVHTLGDAHVYSNHVEPCRKQLKRVPRPFPFIVFKQDKEFLEDFQESDIEVIDYSPYPVISMEMAV
notes: The open reading frame of DHFR-TS was amplified by PCR from T. brucei gDNA using specific oligonucleotides; made in house; host or cells: thyA- E. coli derived from BL21 Star (DE3); unpurified clarified lysate
**Q.** How did the Km turn out when B1 was run?
**A.** Its Km is 8.2 ± 0.6 µM.

Source: paper PMC4866688, “Trypanosoma brucei DHFR-TS Revisited: Characterisation of a Bifunctional and Highly Unstable Recombinant Dihydrofolate Reductase-Thymidylate Synthase” (PLoS Neglected Tropical Diseases, 2016)
